From patent publication US20020077289A1, “Angiostatin and endostatin binding proteins and methods of use” (priority 2000, published 2002)

What was measured:
[1] = Pharmacokinetics: serum rhEndostatin levels after s.c. administration; type: in vivo, C57BL/6J mice; details: for AUClast: sera 0.17-2 hours
Method: To determine the pharmacokinetics, C57BL/6J mice (3 per time point) were dosed s.c. with 1.5 nmol of rhEndostatin alone or in combination with 375 nmol of either E37 or control peptide. Sera was collected 0.17, 0.5, 1 and 2 hours following s.c. administration. Serum drug levels were determined using an Endostatin EIA kit (Cytlmmune Sciences, College Park, Md.) according to the manufacture's instructions. Pharmacokinetic analyses of the serum concentration versus time data were performed by nonlinear least square minimization using RSTRIP (Version 4.03, MicroMath Scientific Software, Salt Lake City, Ut.).
Groups of mice (3 mice/time point) were injected s.c. with 1.5 nmol of rhEndostatin alone or in combination with a 250-fold molar excess of either E37 or control peptide. Sera were collected at 0.17, 0.5, 1 and 2 hours following s.c. administration, and assessed for serum rhEndostatin levels as previously described (Sim et al.)

[2] = system: wound healing; details: in vivo; cited from earlier work
[3] = system: HUVEC microfilaments; experiment: Fluorescent staining of formalin fixed endothelial cells with Alexa 488-labeled rhEndostatin; type: cell-based, human; details: 40 μg/ml Alexa 488-labeled rhEndostatin with anti-tropomyosin TM311; HUVECs
Method: (A), HUVECs, (B), HAECs and (C), HMVECs were incubated in the presence of 40 micrograms per milliliter (μg/ml) Alexa 488-labeled rhEndostatin and photographed at 100× magnification under Alexa 488 (green) excitation wavelength. (D) and (E), HUVECs were incubated simultaneously in anti-tropomyosin TM311 ascites fluid and 40 micrograms per milliliter (μg/ml) Alexa 488-labeled rhEndostatin followed by incubation in Alexa 594 conjugated goat anti-mouse IgG (H+L). The same field was photographed under Alexa 488 (green) and Alexa 594 (red) excitation wavelengths at 100× magnification.
HUVECs were incubated in the presence of 40 micrograms per milliliter (μg/ml) Alexa 488-labeled rhEndostatin alone (A), or in the presence of a 50-fold molar excess of control peptide (B), or E37 peptide (C). Cells were photographed using the same exposure times at 100x magnification under Alexa 488 (green) excitation wavelength.
To detect the binding of Alexa-labeled rhEndostatin 1×10^4 HUVEC, HMVEC and HAECs were plated on 1.5% gelatin coated Nalge Nunc Lab Tek II chamber slides (Naperville, Ill.) and fixed in 10% neutral buffered formalin followed by a methanol wash. The chamber slides were incubated in PBS/1% calf serum containing 40 μg/ml (2 μM) of Alexa 488-labeled rhEndostatin (Narum et al., manuscript in preparation) for 1 hr at room temperature. The slides were washed in PBS, coverslips mounted using fluorescent mounting media (Kirkegaard and Perry Laboratories, Gaithersburg, Md.) and cells photographed under Alexa 488 excitation wavelength. Co-localization studies were performed as above except cells were incubated in PBS/1% calf serum containing 1:200 mouse anti-tropomyosin TM311 (Sigma, St. Louis, Miss.) and 40 μg/ml of Alexa 488-labeled rhEndostatin followed by incubation with goat anti-mouse IgG (H+L) conjugated to Alexa 594 (Molecular Probes, Eugene, Oregon). The same fields were photographed under Alexa 488 and Alexa 594 wavelengths. […]

[4] = system: primary cultures of pericytes; experiment: Proliferation of PDGF-BB or 20% fetal calf serum stimulated pericytes (thymidine incorporation, MTT); type: cell-based
Excerpt: (§1) Endostatin protein results in an inhibition of proliferation of PDGF-BB or 20% fetal calf serum stimulated primary cultures of pericytes and to a lesser extent fibroblasts. […] The results have been confirmed using a MTT proliferation kit.
Endostatin protein tends to have a greater effect on cells in the earlier stages of differentiation. While such cells constitute a small fraction of the total number, inhibiting their proliferation may have significant effects on the final total cell number. Endostatin protein's effect on cells early in the differentiation pathway results in a reduction of 70-80% of the final cell number. Endostatin protein also changes the morphology of these cells (data not shown).

[5] = system: B16-BL6 melanoma cells; experiment: B16-BL6 experimental metastasis assay; type: in vivo, C57BL/6J mice; details: dose of 1.3 nmol rhEndostatin
[6] = system: G-actin; experiment: Actin polymerization light scatter assay; type: biochemical; details: G-actin/Endostatin nucleation complexes
Excerpt: As a result of the inventors findings, also included herein are_antiangiogenic actin-binding molecules. Though not wishing to be bound by the following theory, it is believed that since actin polymerization is affected by Endostatin it could possibly mean that Endostatin is binding to the actin component of the microfilaments, in addition to or in association with tropomyosin. […] Accordingly, molecules such as Endostatin that have an effect on actin polymerization will have an effect on microfilaments resulting in anti-angiogenic activity through modification of cell motility, and induction of cell apoptosis. Preferred embodiments of the present invention include compositions comprising proteins and chemicals that bind tropomyosin isoforms, such as hTM3. In certain embodiments, such compositions may be characterized as antiangiogenic actin-binding molecules.

[7] = system: intratumoral blood flow; details: systemic rhEndostatin therapy; cited from earlier work
[8] = system: fibroblasts; experiment: Proliferation of PDGF-BB or 20% fetal calf serum stimulated fibroblasts (thymidine incorporation, MTT); type: cell-based; details: stimulated with PDGF-BB or 20% fetal calf serum; compared with pericytes
Excerpt: as §1

[9] = system: viable HUVECs; experiment: Internalization of Alexa Fluor 488 labeled rhEndostatin by viable HUVECs; type: cell-based, human
Method: To determine whether live endothelial cells actively internalize Endostatin protein, viable HUVECs were incubated with Alexa Fluor™ 488 labeled rhEndostatin protein. […] Internalized rhEndostatin was rapidly processed such that by 60 minutes, little if any intercellular fluorescence was detected (data not shown).

[10] = parenteral administration; cited from earlier work

B1: rhEndostatin: recombinant human Endostatin, antiangiogenic fragment of a C-terminal non-collagenous region of a collagen protein, produced in P. pastoris (protein)
chain: HSHRDFQPVLHLVALNSPLSGGMRGIRGADFQCFQQARAVGLAGTFRAFLSSRLQDLYSIVRRADRAAVPIVNLKDELLFPSWEALFSGSEGPLKPGARIFSFDGKDVLRHPTWPQKSVWHGSDPNGRRLTESYCETWRTEAPSATGQASSLLGGRLLGQSAASCHHAYIVLCIENSFMTASK
- AUClast ([1]; 1.5 nmol rhEndostatin s.c. + 250x E37 peptide): 4544 ng·min/mL
- AUClast ([1]; 1.5 nmol rhEndostatin s.c. + 250x control peptide): 5552 ng·min/mL
- AUClast ([1]; 1.5 nmol rhEndostatin s.c. alone): 5370 ng·min/mL
- AUClast relative to rhEndostatin alone or with 375 nmol control peptide ([1]; 1.5 nmol rhEndostatin s.c. co-administered with 250-fold molar excess of E37 peptide): 85%
- effect on wound healing [2]: remained unaffected
- localization of fluorescently labeled rhEndostatin in fixed cells [3]: co-localized to HUVEC microfilaments
- differentiation of pericytes to fibroblasts [4]: does not appear to affect
- reduction of the final cell number ([4]; effect on cells early in the pericyte/fibroblast differentiation pathway): 70-80%
- thymidine incorporation into primary cultures of pericytes ([4]; stimulated with PDGF-BB or 20% fetal calf serum): consistent reduction in thymidine incorporation
- inhibition of lung metastases inferred from dose titration of rhEndostatin (Sim et al) [5]: 77%
- effect on actin polymerization [6]: shorten the lag phase and facilitate actin polymerization
- reduction of intratumoral blood flow [7]: 50%
- thymidine incorporation into fibroblasts [8]: to a lesser degree
- internalization by live endothelial cells [9]: rapidly internalized and translocated predominantly to the nucleus
- circulating levels [10]: nM range
